# From US12466853B2, “Selective targeting of apoptosis proteins by structurally-stabilized and/or cysteine-reactive NOXA peptides” (priority 2017, dated 2025)
# “Also recorded” adds a separate entry of the source.
# What was measured:
# full-length BFL-1 = biological target: T1, full-length BFL-1 (Homo sapiens, UniProt Q16548); assay: Covalent crosslinking to full-length BFL-1, recombinant and HA-tagged expressed in 293T cells; format: binding; conditions: recombinant and expressed in 293T cells; somewhat reduced efficiency vs C-terminally truncated species
# T1 construct: Recombinant full-length BFL-1 (aa-175) containing an N-terminal hexahistidine tag; made in house
# T1 sequence (Q16548 1-175): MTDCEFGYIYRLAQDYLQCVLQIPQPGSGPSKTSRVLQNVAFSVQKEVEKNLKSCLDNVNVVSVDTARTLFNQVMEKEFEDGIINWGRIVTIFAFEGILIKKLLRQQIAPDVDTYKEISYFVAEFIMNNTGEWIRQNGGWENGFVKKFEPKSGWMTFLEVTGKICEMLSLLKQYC
# From the text: (§1) We confirmed that both of our lead constructs could covalently crosslink to full-length BFL-1 protein, which bears a C-terminal helix that could potentially compete with D-NA-NOXA SAHBs for interaction at the canonical BH3-binding pocket in cancer cells. We generated recombinant full-length BFL-1 and expressed HA-tagged full-length BFL-1 in 293T cells, and then conducted crosslinking analyses in vitro and in treated cells, respectively.
# Recombinant full-length BFL-1 (aa-175) containing an N-terminal hexahistidine tag was cloned into the PTYB1 vector (New England Biolabs) and purified as above except for the addition of a chitin affinity chromatography and DTT elution step. Protein purity and identity was confirmed by Coomassie staining and western blot analysis using a mouse monoclonal anti-His6 tag antibody (Abcam).
# His-BFL-1ΔC C4S/C19S protein (5 μM) was pre-treated with 10 mM DTT in 50 mM Tris (pH 8.0) and 100 mM NaCl for 30 min at room temperature (final volume […]) and then combined with a 10:1 molar ratio of cysteine-reactive NOXA SAHB for an additional 1-hr incubation at room temperature. The samples were then boiled in 3× loading buffer with DTT and electrophoresed on 12% Bis-Tris gel, then subjected to Coomassie staining.
# U937 cells [1] = assay: LDH release assay, U937 cells; format: cell-based, human; conditions: 30 min and 4 hr, listed as D-NA-NOXA SAHB-15 R31E
# Experimental: After overnight incubation for A375P cells, or immediately upon plating for U937 cells, the cells were treated with the indicated concentrations of D-NA-NOXA SAHBs in DMEM or RPMI supplemented with 5% FBS for the indicated time period (30 min, 4 h). After plate centrifugation at 1,500 rpm (Thermo Scientific Sorvall Four-Place Swinging Bucket Rotor [75006445]; 478×g) for 5 min at 4° C., LDH release was quantified by transferring 100 μL of cell-culture medium to a clear plate (Corning), incubating with 100 μL of LDH reagent (Roche) for 30 min while shaking, and then measuring absorbance at 490 nm on a microplate reader (Spectramax M5, Molecular Devices).
# native BFL-1 [2] = biological target: T2, native BFL-1 (Homo sapiens, UniProt Q16548); assay: BFL-1 targeting in A375P lysates (streptavidin pulldown, BFL-1 western); format: binding; conditions: biotinylated SAHB, compared to acetylated construct
# T2 construct: endogenous in cells; host or cells: A375P melanoma cells (A10); U937 AML cells (A12), lysates
# T2 sequence (Q16548 1-175): T1 sequence (Q16548 1-175)
# Experimental: (§2) Cultured A375P and U937 cells were trypsinized or harvested, respectively, washed with PBS, and lysed by incubating with 1% CHAPS lysis buffer (1% CHAPS, 150 mM NaCl, 50 mM Tris pH 7.4, 100 μM DTT). The protein concentrations of the soluble fraction were measured using a BCA kit according to the manufacturer's instructions (Thermo Scientific). Lysate samples (1 mg) were incubated with vehicle or C-terminally biotinylated NOXA SAHBs (30 μM) overnight in 1% CHAPS lysis buffer at 4° C. Biotin capture was accomplished by incubating the mixture with high-capacity SA agarose (Thermo Scientific) for 2 hours at 4° C., followed by centrifugation and washing the pelleted beads three times with lysis buffer (1 mL). Bead-bound proteins were eluted by boiling in 10% SDS containing 10 mg/mL biotin for 10 minutes and then subjected to electrophoresis and western blotting using BFL-1 (Abcam, #125259) and MCL-1 (Rockland #600-401-394S) antibodies.
# MCL-1 = biological target: T3, MCL-1 (Homo sapiens, UniProt Q07820); assay: MCL-1 engagement in A375P lysates (streptavidin pulldown, MCL-1 western); format: binding; conditions: biotinylated SAHB
# T3 construct: endogenous protein in lysates from the A375P melanoma cell line; endogenous in cells; host or cells: A375P melanoma cells (lysate)
# Experimental: as §2
# native BFL-1 [3] = biological target: T2, native BFL-1; assay: BFL-1 targeting in U937 lysates (streptavidin pulldown, BFL-1 western); format: binding; conditions: biotinylated SAHB
# From the text: as §1, §2
# BCL-XLΔC / FITC-BID BH3 = biological target: T4, BCL-XLΔC / FITC-BID BH3 (Homo sapiens, UniProt Q07817); assay: Competitive fluorescence polarization binding assay, BCL-XLΔC
# T4 construct: Recombinant anti-apoptotic BCL-XLΔC (aa 1-212) and MCL-1ΔNΔC (aa 172-329); GST (N, cleaved yes); made in house; host or cells: Escherichia coli BL21(DE3)
# T4 sequence (Q07817 1-212, stated change not applied): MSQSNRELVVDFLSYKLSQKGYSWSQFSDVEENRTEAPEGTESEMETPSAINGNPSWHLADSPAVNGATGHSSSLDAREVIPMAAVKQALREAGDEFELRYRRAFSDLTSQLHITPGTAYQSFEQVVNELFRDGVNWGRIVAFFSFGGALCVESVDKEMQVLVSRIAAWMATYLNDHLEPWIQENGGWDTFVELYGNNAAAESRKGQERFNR
# Experimental: Fluorescence polarization (FP) assays were performed as previously described (Pitter et al., 2008 (supra)). Briefly, direct binding curves were first generated by FITC-BID BH3 (25 nM) with serial dilutions of anti-apoptotic protein, and FP was measured at 5 min on a SpectraMax M5 microplate reader (Molecular Devices). For competition assays, a serial dilution of acetylated or warhead-bearing NOXA SAHB was added to the indicated recombinant protein at ˜EC75 concentration, as determined by the direct binding assay. FITC-BID BH3 (25 nM) was then added and fluorescence polarization was measured at equilibrium. IC50 values were calculated by nonlinear regression analysis of competitive binding curves using PRISM software (GraphPad).
# U937 cells [4] = assay: Cell viability (CellTiter-Glo) and CalcuSyn synergy, U937; conditions: U937 cells (BFL-1-dependent)
# Experimental: Cell viability and caspase-3/7 activation was measured using CellTiter-Glo and Caspase-Glo 3/7 chemiluminescence reagents (Promega), respectively, and luminescence was detected by a Spectramax M5 microplate reader. Synergy of drug interactions was calculated using the CalcuSyn software (Biosoft).
substance,measurement,setting,value
JAT8LREFGDXLNFRQ [D-NA-NOXA-15 R31E],covalent crosslinking to full-length BFL-1,full-length BFL-1,covalent crosslinking to recombinant and expressed full-length BFL-1
same,LDH release (non-specific cell membrane-lytic activity),U937 cells [1],no LDH release; also recorded: no non-specific cell membrane-lytic activity
same,targeting of native BFL-1,native BFL-1 [2],enhanced targeting of native BFL-1
same,MCL-1 engagement,MCL-1,approximately equivalent binding to MCL-1
same,targeting of native BFL-1,native BFL-1 [3],more effective binder of native BFL-1 protein between the two constructs
same,competition for FITC-BID BH3 binding to BCL-XLΔC,BCL-XLΔC / FITC-BID BH3,neither Ac- nor D-NA-NOXA-15 R31E is able to compete
same,"cytotoxicity, single agent",U937 cells [4]; listed as D-NA-NOXA SAHB-15 R31E,responsive
same,"cytotoxicity, single agent",U937 cells [4]; listed as NOXA-15 R31E SAHB,selective cytotoxicity
